The record followed here is PMC4689616 (Nature cell biology, 2015).

One test has as its target T1, TTC7B(9-843) (UniProt Q86TV6 9-843).
T1 sequence: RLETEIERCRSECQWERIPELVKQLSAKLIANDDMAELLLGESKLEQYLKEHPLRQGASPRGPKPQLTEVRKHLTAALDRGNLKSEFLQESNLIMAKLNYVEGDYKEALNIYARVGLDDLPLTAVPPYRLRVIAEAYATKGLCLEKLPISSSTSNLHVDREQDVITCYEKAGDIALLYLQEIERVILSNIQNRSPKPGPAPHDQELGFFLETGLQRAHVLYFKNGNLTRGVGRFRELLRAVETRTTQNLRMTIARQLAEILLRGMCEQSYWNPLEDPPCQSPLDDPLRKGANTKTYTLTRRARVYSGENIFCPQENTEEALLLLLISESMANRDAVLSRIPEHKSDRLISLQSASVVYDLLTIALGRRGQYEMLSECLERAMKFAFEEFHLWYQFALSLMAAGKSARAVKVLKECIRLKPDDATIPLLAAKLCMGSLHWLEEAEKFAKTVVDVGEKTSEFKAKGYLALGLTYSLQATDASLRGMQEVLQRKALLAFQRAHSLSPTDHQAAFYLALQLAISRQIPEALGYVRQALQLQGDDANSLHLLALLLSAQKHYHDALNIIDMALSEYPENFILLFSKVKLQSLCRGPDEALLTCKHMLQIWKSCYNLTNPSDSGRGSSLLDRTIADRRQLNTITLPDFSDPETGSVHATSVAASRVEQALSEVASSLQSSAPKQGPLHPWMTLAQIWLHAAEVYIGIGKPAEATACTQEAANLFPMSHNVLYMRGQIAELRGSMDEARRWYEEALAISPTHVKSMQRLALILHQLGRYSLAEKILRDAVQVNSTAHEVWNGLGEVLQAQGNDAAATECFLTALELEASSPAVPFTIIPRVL
Description: SEC. For orientation: SEC sorts molecules by how far they enter the pores of the column.

The target of test [1] is 3xFLAG-PI4KIIIα (wild-type) (UniProt P42356-1 1-2102). The test can be described thus: pull-down.

B1: FAM126A(2-308) (domain or fragment)
chain: FTSEKGVVEEWLSEFKTLPETSLPNYATNLKDKSSLVSSLYKVIQEPQSELLEPVCHQLFEFYRSGEEQLLQFTLQFLPELIWCYLAVSASRNVHSSGCIEALLLGVYNLEIVDKQGHTKVLSFTIPSLSKPSVYHEPSSIGSMALTESALSQHGLSKVVYSGPHPQREMLTAQNRFEVLTFLLLCYNAALTYMPSVSLQSLCQICSRICVCGYPRQHVRKYKGISSRIPVSSGFMVQMLTGIYFAFYNGEWDLAQKALDDIIYRAQLELYPEPLLVANAIKASLPHGPMKSNKEGTRCIQVEITPT
As to B1, the binding result in the test with TTC7B(9-843) is recorded as “binds”.

B2: GST-FAM126A-N/TTC7B dimer (complex)
chain 1: FTSEKGVVEEWLSEFKTLPETSLPNYATNLKDKSSLVSSLYKVIQEPQSELLEPVCHQLFEFYRSGEEQLLQFTLQFLPELIWCYLAVSASRNVHSSGCIEALLLGVYNLEIVDKQGHTKVLSFTIPSLSKPSVYHEPSSIGSMALTESALSQHGLSKVVYSGPHPQREMLTAQNRFEVLTFLLLCYNAALTYMPSVSLQSLCQICSRICVCGYPRQHVRKYKGISSRIPVSSGFMVQMLTGIYFAFYNGEWDLAQKALDDIIYRAQLELYPEPLLVANAIKASLPHGPMKSNKEGTRCIQVEITPT
chain 2: RLETEIERCRSECQWERIPELVKQLSAKLIANDDMAELLLGESKLEQYLKEHPLRQGASPRGPKPQLTEVRKHLTAALDRGNLKSEFLQESNLIMAKLNYVEGDYKEALNIYARVGLDDLPLTAVPPYRLRVIAEAYATKGLCLEKLPISSSTSNLHVDREQDVITCYEKAGDIALLYLQEIERVILSNIQNRSPKPGPAPHDQELGFFLETGLQRAHVLYFKNGNLTRGVGRFRELLRAVETRTTQNLRMTIARQLAEILLRGMCEQSYWNPLEDPPCQSPLDDPLRKGANTKTYTLTRRARVYSGENIFCPQENTEEALLLLLISESMANRDAVLSRIPEHKSDRLISLQSASVVYDLLTIALGRRGQYEMLSECLERAMKFAFEEFHLWYQFALSLMAAGKSARAVKVLKECIRLKPDDATIPLLAAKLCMGSLHWLEEAEKFAKTVVDVGEKTSEFKAKGYLALGLTYSLQATDASLRGMQEVLQRKALLAFQRAHSLSPTDHQAAFYLALQLAISRQIPEALGYVRQALQLQGDDANSLHLLALLLSAQKHYHDALNIIDMALSEYPENFILLFSKVKLQSLCRGPDEALLTCKHMLQIWKSCYNLTNPSDSGRGSSLLDRTIADRRQLNTITLPDFSDPETGSVHATSVAASRVEQALSEVASSLQSSAPKQGPLHPWMTLAQIWLHAAEVYIGIGKPAEATACTQEAANLFPMSHNVLYMRGQIAELRGSMDEARRWYEEALAISPTHVKSMQRLALILHQLGRYSLAEKILRDAVQVNSTAHEVWNGLGEVLQAQGNDAAATECFLTALELEASSPAVPFTIIPRVL
As to B2, in test [1], the binding result is “binds”.
